Test results published in patent publication US20250354169A1.
Blank lines part the entries; values can stand above or below the binder they belong to.

Biological target: human FAM19A5-Fc protein (human) (UniProt Q7Z5A7)
Assay: binding inhibition, flow cytometry: 0.1 ug FAM19A5-Fc pre-incubated with 200 uL scFv supernatant, added to U87MG cells, detected with anti-human IgG 488; control GFP AAV supernatant

UniProt Q7Z5A7, sequence (Q7Z5A7 44-132): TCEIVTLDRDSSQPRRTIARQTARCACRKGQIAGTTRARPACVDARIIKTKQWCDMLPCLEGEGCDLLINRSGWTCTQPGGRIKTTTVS

- reduction of the MFI of the binding of human FAM19A5-Fc to U87MG cells: 68%
B1: anti-FAM19A5 ("2-13") scFv, secreted by cells transduced with scAAV9-CMV-2-13-ScFv (scFv, part only)
scFv: ALTQPSSVSANPGETVKITCSGGSYSYGWFQQKSPGSALVTVIYWDDERPSDIPSRFSGALSGSTNTLTITGVQADDEAVYFCGTEDISGTAGVFGAGTTLTVLSGGGGSSGGGGSAVTLDESGGGLQTPGGALSLVCKASGFTFSSHGMFWVRQTPGKGLEYVAEITNDGSGTNYGSAVKGRATISRDNGQSTVRLQLNNLRAEDTGTYFCARSTYECPGGFSCWGDTGQIDAWGHGTEVIVSS
modifications: C-terminal FLAG tag

- reduction of the MFI of the binding of human FAM19A5-Fc to U87MG cells: 19%
B2: anti-FAM19A5 ("1-65") scFv, secreted by cells transduced with scAAV9-CMV-1-65-ScFv (scFv, part only)
scFv: ALTQPSSVSANPGETVKITCSGGGSSGYGYGWYQQKSPSSAPLTVIYWNDKRPSDIPSRFSGSKSGSTHTLTITGVQAEDEAVYFCGNDDYSSDSGYVGVFGAGTTLTVLSGGGGSSGGGGSAVTLDESGGGLQTPGGALSLVCKASGFTFSSYQMGWVRQAPGKGLEWVGVINKSGSDTSYGSAVKGRATISRDNGQSTVRLQLNNLRAEDTGTYFCAKGSASYITAATIDAWGHGTEVIVSS
modifications: C-terminal FLAG tag
